The values below come from paper PMC9688318, “Construction of a Versatile, Programmable RNA-Binding Protein Using Designer PPR Proteins and Its Application for Splicing Control in Mammalian Cells”.

pKd: −log10 of the molar value.

Series [1] relates to PPR2.0t1 (synthetic designer (scaffold from Arabidopsis PPR consensus)). Briefly: RBP-ELISA. Particulars: cell lysate, EMSA: 20 mM Tris-HCl pH 8.0, 150 mM NaCl, 0.5% NP-40, 1 mM DTT, 1 mM EDTA, 0.2 pmol biotin-RNA in 10 uL, 6% PAGE in 0.5x TBE, temperature not stated.
For series [2] the test system is unchanged. The series can be described thus: EMSA. Particulars: apparent; EMSA: 20 mM Tris-HCl pH 8.0, 150 mM NaCl, 0.5% NP-40, 1 mM DTT, 1 mM EDTA, 0.2 pmol biotin-RNA in 10 uL, 6% PAGE in 0.5x TBE; temperature not stated; RBP-ELISA …. (In general: In EMSA bound probe runs differently from free probe, usually more slowly.)
Series [3] deals with PPR2.0t15 (synthetic designer (scaffold from Arabidopsis PPR consensus)). Briefly: RBP-ELISA. Particulars: cell lysate, EMSA: 20 mM Tris-HCl pH 8.0, 150 mM NaCl, 0.5% NP-40, 1 mM DTT, 1 mM EDTA, 0.2 pmol biotin-RNA in 10 uL, 6% PAGE in 0.5x TBE, temperature not stated.
For series [4] the test system is unchanged. Briefly: EMSA. Particulars: apparent; EMSA: 20 mM Tris-HCl pH 8.0, 150 mM NaCl, 0.5% NP-40, 1 mM DTT, 1 mM EDTA, 0.2 pmol biotin-RNA in 10 uL, 6% PAGE in 0.5x TBE; temperature not stated; RBP-ELISA ….
The subject of series [5] is PPR2.0t5 (synthetic designer (scaffold from Arabidopsis PPR consensus)). Briefly: RBP-ELISA. Particulars: cell lysate, EMSA: 20 mM Tris-HCl pH 8.0, 150 mM NaCl, 0.5% NP-40, 1 mM DTT, 1 mM EDTA, 0.2 pmol biotin-RNA in 10 uL, 6% PAGE in 0.5x TBE, temperature not stated.
Series [6] shares this test system. The series can be described thus: EMSA. Particulars: apparent; EMSA: 20 mM Tris-HCl pH 8.0, 150 mM NaCl, 0.5% NP-40, 1 mM DTT, 1 mM EDTA, 0.2 pmol biotin-RNA in 10 uL, 6% PAGE in 0.5x TBE; temperature not stated; RBP-ELISA ….
In series [7] the test system is PPR2.0t8 (synthetic designer (scaffold from Arabidopsis PPR consensus)). Briefly: RBP-ELISA. Particulars: cell lysate, EMSA: 20 mM Tris-HCl pH 8.0, 150 mM NaCl, 0.5% NP-40, 1 mM DTT, 1 mM EDTA, 0.2 pmol biotin-RNA in 10 uL, 6% PAGE in 0.5x TBE, temperature not stated.
Series [8] shares this test system. The series can be described thus: EMSA. Particulars: apparent; EMSA: 20 mM Tris-HCl pH 8.0, 150 mM NaCl, 0.5% NP-40, 1 mM DTT, 1 mM EDTA, 0.2 pmol biotin-RNA in 10 uL, 6% PAGE in 0.5x TBE; temperature not stated; RBP-ELISA ….
Series [9] concerns PPR2.0t19 (synthetic designer (scaffold from Arabidopsis PPR consensus)). Briefly: RBP-ELISA. Particulars: cell lysate, EMSA: 20 mM Tris-HCl pH 8.0, 150 mM NaCl, 0.5% NP-40, 1 mM DTT, 1 mM EDTA, 0.2 pmol biotin-RNA in 10 uL, 6% PAGE in 0.5x TBE, temperature not stated.
The test system is the same in series [10]. The series can be described thus: EMSA. Particulars: apparent; EMSA: 20 mM Tris-HCl pH 8.0, 150 mM NaCl, 0.5% NP-40, 1 mM DTT, 1 mM EDTA, 0.2 pmol biotin-RNA in 10 uL, 6% PAGE in 0.5x TBE; temperature not stated; RBP-ELISA ….
The subject of series [11] is PPR2.0t14 (synthetic designer (scaffold from Arabidopsis PPR consensus)). Briefly: RBP-ELISA. Particulars: cell lysate, EMSA: 20 mM Tris-HCl pH 8.0, 150 mM NaCl, 0.5% NP-40, 1 mM DTT, 1 mM EDTA, 0.2 pmol biotin-RNA in 10 uL, 6% PAGE in 0.5x TBE, temperature not stated.
The test system is the same in series [12]. Briefly: EMSA. Particulars: apparent; EMSA: 20 mM Tris-HCl pH 8.0, 150 mM NaCl, 0.5% NP-40, 1 mM DTT, 1 mM EDTA, 0.2 pmol biotin-RNA in 10 uL, 6% PAGE in 0.5x TBE; temperature not stated; RBP-ELISA ….
The subject of series [13] is PPR2.0t24 (synthetic designer (scaffold from Arabidopsis PPR consensus)). Briefly: EMSA. Particulars: apparent; EMSA: 20 mM Tris-HCl pH 8.0, 150 mM NaCl, 0.5% NP-40, 1 mM DTT, 1 mM EDTA, 0.2 pmol biotin-RNA in 10 uL, 6% PAGE in 0.5x TBE; temperature not stated; RBP-ELISA ….
The test system of series [14] is PPR2.0t4 (synthetic designer (scaffold from Arabidopsis PPR consensus)). Briefly: RBP-ELISA. Particulars: cell lysate, EMSA: 20 mM Tris-HCl pH 8.0, 150 mM NaCl, 0.5% NP-40, 1 mM DTT, 1 mM EDTA, 0.2 pmol biotin-RNA in 10 uL, 6% PAGE in 0.5x TBE, temperature not stated.
Series [15] has the same test system. The series can be described thus: EMSA. Particulars: apparent; EMSA: 20 mM Tris-HCl pH 8.0, 150 mM NaCl, 0.5% NP-40, 1 mM DTT, 1 mM EDTA, 0.2 pmol biotin-RNA in 10 uL, 6% PAGE in 0.5x TBE; temperature not stated; RBP-ELISA ….
The subject of series [16] is PPR2.0t3 (synthetic designer (scaffold from Arabidopsis PPR consensus)). Briefly: RBP-ELISA. Particulars: cell lysate, EMSA: 20 mM Tris-HCl pH 8.0, 150 mM NaCl, 0.5% NP-40, 1 mM DTT, 1 mM EDTA, 0.2 pmol biotin-RNA in 10 uL, 6% PAGE in 0.5x TBE, temperature not stated.
Series [17] has the same test system. Briefly: EMSA. Particulars: apparent; EMSA: 20 mM Tris-HCl pH 8.0, 150 mM NaCl, 0.5% NP-40, 1 mM DTT, 1 mM EDTA, 0.2 pmol biotin-RNA in 10 uL, 6% PAGE in 0.5x TBE; temperature not stated; RBP-ELISA ….
For series [18], the system named is PPR2.0t2 (synthetic designer (scaffold from Arabidopsis PPR consensus)). Briefly: RBP-ELISA. Particulars: cell lysate, EMSA: 20 mM Tris-HCl pH 8.0, 150 mM NaCl, 0.5% NP-40, 1 mM DTT, 1 mM EDTA, 0.2 pmol biotin-RNA in 10 uL, 6% PAGE in 0.5x TBE, temperature not stated.
Series [19] has the same test system. The series can be described thus: EMSA. Particulars: apparent; EMSA: 20 mM Tris-HCl pH 8.0, 150 mM NaCl, 0.5% NP-40, 1 mM DTT, 1 mM EDTA, 0.2 pmol biotin-RNA in 10 uL, 6% PAGE in 0.5x TBE; temperature not stated; RBP-ELISA ….
In series [20] the test system is PPR2.0t23 (synthetic designer (scaffold from Arabidopsis PPR consensus)). Briefly: RBP-ELISA. Particulars: cell lysate, EMSA: 20 mM Tris-HCl pH 8.0, 150 mM NaCl, 0.5% NP-40, 1 mM DTT, 1 mM EDTA, 0.2 pmol biotin-RNA in 10 uL, 6% PAGE in 0.5x TBE, temperature not stated.
Series [21] has the same test system. The series can be described thus: EMSA. Particulars: apparent; EMSA: 20 mM Tris-HCl pH 8.0, 150 mM NaCl, 0.5% NP-40, 1 mM DTT, 1 mM EDTA, 0.2 pmol biotin-RNA in 10 uL, 6% PAGE in 0.5x TBE; temperature not stated; RBP-ELISA ….
In series [22] the test system is PPR2.0t11 (synthetic designer (scaffold from Arabidopsis PPR consensus)). Briefly: RBP-ELISA. Particulars: cell lysate, EMSA: 20 mM Tris-HCl pH 8.0, 150 mM NaCl, 0.5% NP-40, 1 mM DTT, 1 mM EDTA, 0.2 pmol biotin-RNA in 10 uL, 6% PAGE in 0.5x TBE, temperature not stated.
Series [23] has the same test system. Briefly: EMSA. Particulars: apparent; EMSA: 20 mM Tris-HCl pH 8.0, 150 mM NaCl, 0.5% NP-40, 1 mM DTT, 1 mM EDTA, 0.2 pmol biotin-RNA in 10 uL, 6% PAGE in 0.5x TBE; temperature not stated; RBP-ELISA ….

“GACAUGCGAAUGAACUCUUCCGGGAGACUG [Probe_t1]” gave a binding signal in series [1] of 6.64e+07 luminescence. Besides, the pKd in series [2] is 8.46.
As to “GACAUGCAAGGAUAAUAUCAAACACGACUG [Probe_t15]”, in [3], the binding signal is 2.84e+07 luminescence. Besides, the pKd in series [4] is 7.39.
“GACAUGCCAACAUCAGUCUGAUAAGGACUG [Probe_t5]”: in series [5], the binding signal was found to be 1.67e+07 luminescence. The pKd in [6] is 6.78.
The sequence “GACAUGCCACUAUUUAAGUUAUCAAGACUG [Probe_t8]” returned a binding signal in series [7] of 4.7e+07 luminescence. The pKd in series [8] is 8.71.
Turning to “GACAUGCGUGAUGUGGAGUUAAGGCGACUG [Probe_t19]”, the binding signal in series [9] came out at 1.19e+07 luminescence. The pKd in [10] is 6.76.
In series [11], “GACAUGCGCAGAUAAUUAAUAAGAAGACUG [Probe_t14]” yielded a binding signal of 1.33e+07 luminescence. The pKd in series [12] was 6.71.
Turning to “GACAUGCGGCGGGGCACUGUGCGUGGACUG [Probe_t24]”, the pKd in series [13] is 7.96.
For “GACAUGCGGCAAAAAGAUCACUGUAGACUG [Probe_t4]”, the binding signal in series [14] came to 5.98e+07 luminescence. In series [15], the pKd was 8.59.
“GACAUGCCUGAGUCAUAACCAGCCUGACUG [Probe_t3]” returned a binding signal in series [16] of 3.35e+07 luminescence. Besides, in [17], the pKd is 7.23.
Sequence “GACAUGCGAGAGGAAGCCUGAGAGUGACUG [Probe_t2]” had a binding signal in [18] of 5.68e+07 luminescence. For the same sequence, the pKd in [19] is 8.40.
As to “GACAUGCCCCAUAGAUGUGACAAGCGACUG [Probe_t23]”, in series [20], the binding signal came to 3.27e+07 luminescence. Further, the pKd in [21] is 7.98.
Consider “GACAUGCGACUCAGGAAUCGGCUCUGACUG [Probe_t11]”, for which the binding signal in series [22] was 3.78e+07 luminescence. The pKd in [23] was 7.20.

For orientation: pKd means the Kd on a negative log10 scale, so that one unit is a factor of ten.
